Data as given in paper PMC3169410 (Acta Crystallographica Section F: Structural Biology and …, 2011).

Molecular target: the molecule itself
Assay: crystal structure

B1: BrabA.11339.a, putative β-lactamase-like protein from Brucella melitensis biovar Abortus 2308 (natural protein)
chain: TSPRNCLRFTLLGCGSSPGVPRINGDWGKCDPKNPKNRRRRASLLVERYDAEGNNTVVVIDTGPDFRMQMIDSGVHMLDAAVYTHPHADHIHGIDDLRTYVVDNGRLMDVYANRLTRNRLYDTFGYCFETPVGSSYPPILSMHDIAPETPFSIEGAGGAIRFEPFSQVHGDIESLGFRIGSVVYCTDVSAFPEQSLQYIKDADVLIIGALQYRPHPSHFSLGEALEWIEKLSPKRAILTHMHVPLDYETVMRETPHHVEPGYDGLRFEVAV
notes: also called BAB1_1016
  stoichiometry N: 2
